Target: NPM1 (human wildtype nucleophosmin, residues 1 to 290), purified recombinant (human, UniProt P06748 1-290)
Test: SPR; NPM1 immobilised, DDX24^WT as analyte

NPM1 (human wildtype nucleophosmin, residues 1 to 290), purified recombinant, sequence (P06748 1-290): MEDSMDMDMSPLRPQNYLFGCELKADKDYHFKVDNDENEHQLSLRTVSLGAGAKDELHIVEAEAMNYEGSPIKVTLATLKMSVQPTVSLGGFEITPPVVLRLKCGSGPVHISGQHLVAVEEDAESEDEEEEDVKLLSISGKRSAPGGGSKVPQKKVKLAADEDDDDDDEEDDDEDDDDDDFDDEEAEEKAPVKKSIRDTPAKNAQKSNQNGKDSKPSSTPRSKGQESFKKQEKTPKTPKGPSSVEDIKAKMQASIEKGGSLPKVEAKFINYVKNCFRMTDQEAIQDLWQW

Kd: 2.4 nM
B1: DDX24^WT (human wildtype DDX24, residues 28 to 859), purified recombinant (domain or fragment)
chain: KWKEVKIDPNMFADGQMDDLVCFEELTDYQLVSPAKNPSSLFSKEAPKRKAQAVSEEEEEEEGKSSSPKKKIKLKKSKNVATEGTSTQKEFEVKDPELEAQGDDMVCDDPEAGEMTSENLVQTAPKKKKNKGKKGLEPSQSTAAKVPKKAKTWIPEVHDQKADVSAWKDLFVPRPVLRALSFLGFSAPTPIQALTLAPAIRDKLDILGAAETGSGKTLAFAIPMIHAVLQWQKRNAAPPPSNTEAPPGETRTEAGAETRSPGKAEAESDALPDDTVIESEALPSDIAAEARAKTGGTVSDQALLFGDDDAGEGPSSLIREKPVPKQNENEEENLDKEQTGNLKQELDDKSATCKAYPKRPLLGLVLTPTRELAVQVKQHIDAVARFTGIKTAILVGGMSTQKQQRMLNRRPEIVVATPGRLWELIKEKHYHLRNLRQLRCLVVDEADRMVEKGHFAELSQLLEMLNDSQYNPKRQTLVFSATLTLVHQAPARILHKKHTKKMDKTAKLDLLMQKIGMRGKPKVIDLTRNEATVETLTETKIHCETDEKDFYLYYFLMQYPGRSLVFANSISCIKRLSGLLKVLDIMPLTLHACMHQKQRLRNLEQFARLEDCVLLATDVAARGLDIPKVQHVIHYQVPRTSEIYVHRSGRTARATNEGLSLMLIGPEDVINFKKIYKTLKKDEDIPLFPVQTKYMDVVKERIRLARQIEKSEYRNFQACLHNSWIEQAAAALEIELEEDMYKGGKADQQEERRRQKQMKVLKKELRHLLSQPLFTESQKTKYPTQSGKPPLLVSAPSKSESALSCLSKQKKKKTKKPKEPQPEQPQPSTSAN

From publication PMC10496494 (2023)
